# Test results taken from the nanobody polyreactivity screen of Harvey et al. (2022).
# Assay: yeast display, Sf9 membrane polyspecificity reagent, FACS + sequencing; frameworks hold sequencing errors
# Procedure, shortened: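 Using colony PCR, genes from sorted yeast display clones were amplified, then sequenced on MiSeq at 2 × 250 and filtered by CDR length. The clones had been stained with 10% biotinylated, detergent-solubilized Sf9 membrane reagent for 1 hour at 4 °C and sorted by FACS into low and high (top ~1%) gates on anti-HA and streptavidin fluorescence. Polyreactivity labels come from the gate of origin.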
row,Sequence,polyreactivity (PSR sort gate)
1,QVQLVESGGGLVQAGGSLRLSSAASGIIFYNYAMGWDRQAPGKEWEFVAAISWSGGSTNYADSVKGRFTISRDTAKNTVDLQMNSLQPEDTAVYYCAAEYYGWYYGREAYWGQGTQVTVSS,low polyreactivity
2,QVQLVESGGGLVQAGGSLRLSCAASGSIFGLYAMGWYRQAPGKERELVAAINWNGGDTYYADSVKGRFTISRDNAKNTVYLQMNSLKPEDTAVYYCAAELYRYGIRRRHYDYWGQGTLVTVSS,low polyreactivity
3,QVQLVESGGGLVQAGGILRLSCAASGSIIVYNSMVCYRQAPGKERELVARITGRGGRTYYADSVKGRFTISRDNAKNTVYLQMNSLKPEDTAVYYCAKYGYWGQGTQVTVSS,high polyreactivity
4,QVQLVESGGGLVQAGGSLRLSCAASGITFYDNVMGWYRQAPGKERELVAAITDSGGSTYYADSVKGRFTISRDNAKNTVYLQMNSLKPEDTAVYYCNADVNAHWWWYIEEYWGQGTQVTVSS,low polyreactivity
5,QVQLVESGGGFVQAGGSLRLSCAASGRIFTRYAMGWYRQAPGKERELVASISWSGDGTYYADSVKGRFTISRDNAKNTVYLQMNSLKPDDTAVYYCAARYGTVVPGQVRWYGYGYWGQGTQVTVSS,high polyreactivity
6,QVQLVESGGGLVQAGGSLRLSCAASGFIFYYNVMGWYRQAPGKERELVAAIRYRGTITYYADSVKGRFTISRDNAKNTVYLQMNSLKPEDTAVYYCARRQRNYYRSSPGGDYWGQGTQVTVSS,low polyreactivity
7,QVQLVESGGGLVQAGGSLRLSCAASGFTFRDYVMGWYRQAPGKERELVAAISRSGASTYYADSVKGRFTISRDNAKNTVYLQMNSLKPEDTAVYYCAKTQAGYSPGTYYYWGQGTQVTVSS,high polyreactivity
8,QGQLVESGGGLVQAGGSLRLSCAASGRTLVIKVMGWYRKAPGKERELVAAISFRSGNTYYADSVKGRFTISRDNAKITVYLQMNSLKPEDTAVYDCAAYTYRTSTTSSYYNWGQGTQVTVSS,high polyreactivity
9,QVQLVESGGGLVQAGGSLRLSCAASGSIFARNAMGWYRQAPGKERELVAVITTGGRTYYADSVKGRFTISRDNAKNTVYLQMNSLKPEDTAVYYCATRVIYGQSGGYWGQGTQVTVSS,high polyreactivity
10,QVQLVESGGGLVQAGGSLRLSCAASGSIFRWYAMGWYRKAPGKERELVARITVSGGSTYYADSVKGRFTISRDNAKNTVYLEMNSLKPEDTAVYYCNARAHYTPDGGGDYWGQGTQVTVSS,high polyreactivity
11,QVQLVESVGGLVQAGASLPLSCAASGRIFPYYAMGWYRQAPGKESEFVAAITKRGGSTSYADSVKGRFTISRDNAKNTVYLQMNSLKPEDTAVYYCAARRGSGFFTYYGGAFWGQGTLVTVSS,low polyreactivity
12,QVQLVESWGGLVQAGGSLRLSCAASGNIFYFYAMGWYRQAPGKERELVAAITSVGSTKYADSVKGRFTISRDNAKNTVYLEMNCLKPEDTAVYYCAARRWRSYYYWGQGTHVTVSS,high polyreactivity
13,QVQLVESGGGLVQAGGSLRLSCAASGSTFGENAMGWYRQAPGKERELVAGINSTGGSTYYADSVKGRFTISRDHAKNNVYLQMNSLNPEDTAVYYCAAGDWYSGNTSHFYYWGQGTQVTVSS,low polyreactivity
14,QVQHVESGGGLVQAGGSLRLSSAAYGFIFGYYTMGWYRQAPGKERELVAAITSGDSTNYADSVKGRFTISRDNAKNTVYLQMNSLKPEDTAVYYCNARGLFTWMDYWGQGTQVTVSS,low polyreactivity
15,QVQLVESGGGLVQAGGSLRLSCAASGSTFPPNAMGWYRQAPGKERELVADSSDSSTYYADSVKGRFTISRDNAKNTVYLQMNSLKPEDNAVYYCAAADAGLRSKSYGQQYDYWGQGTQVTVSS,low polyreactivity
16,QVQLVESGIGLVQAGGSLSLSCAASGFNLDTYGMGWYRQAPGKERELVAAISQSDVSTYYADSVKGRFTISRDNAKNTVYLQMNSLKPEDTAVYYCAADRGGLRWFWQVLYEYWGQGTQVTVSS,low polyreactivity
17,QVQLVESGGGLVQAGGSLRLSCAASGRIFNYYDMGWYRQPPGKERELVAAISWRGTSTRYADSVKGRFTISRDNAKNTVYLQMNSLKPEDTAVYYCADDDYARRFSFKYDYWGQGTQVTVSS,high polyreactivity
